Assays:
[1] = target: opossum MDM2 421-C, GST-tag removed (Monodelphis domestica (opossum)); experiment: SEC; GST-MDM2 variants (3 mg/mL) incubated with 1:10 TEV for 16-20 h at 4 °C; soluble fraction of the cleaved products on Superdex 75 Increase 10/300; comparison with molecular weight markers and SDS-PAGE
[2] = target: Xenopus tropicalis MDM2 414-C (MDM2^f), GST-tag removed (Xenopus tropicalis (western clawed frog)); experiment: crystal structure; free MDM2 RING domains (MDM2^z, MDM2^f); crystals grown at 19 °C by vapour diffusion
[3] = target: Xenopus tropicalis MDM2 414-C (MDM2^f), GST-tag removed (Xenopus tropicalis (western clawed frog)); experiment: crystal structure; MDM2^f or MDM2^hGT mixed with UbcH5B–Ub at 1:1 ratio; crystals grown at 19 °C by vapour diffusion
[4] = target: Xenopus tropicalis MDM2 414-C (MDM2^f), GST-tag removed (Xenopus tropicalis (western clawed frog)); experiment: SEC; cleaved MDM2 variants after removal of the GST-tag on HiLoad 16/600 Superdex 75; oligomeric state by comparison with molecular weight markers

Substance	stoichiometry N [1]	stoichiometry N [2]	stoichiometry N [3]	stoichiometry N [4]
opossum MDM2 421-C, GST-tag removed (domain or fragment)	2	–	–	–
Xenopus tropicalis MDM2 414-C (MDM2^f), GST-tag removed (domain or fragment)	–	2	2	2
